B1: TPR t1 (parent)
chain: GACCAAUCUGCCCUCAGAGCUCGAGAACAUCUUCGGAUGCAGAGGAGGCAGGCUUCGGUGGCGCGAUAGCGCCAACGUCCUCAACCUCCAAUGCAUCCCACCACAUGAUGAUGCCUGAAGAGCCUUGGUUUUUUG

Variants of: B1
Test: polymerase ribozyme fitness, log enrichment relative to wild type (log ratio); higher = more active; in vitro selection for triplet polymerase activity
Method in brief: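 Each subunit of a heterodimeric triplet polymerase ribozyme was mutagenized into a library by PCR, transcribed, and subjected to one round of in vitro selection, run in triplicate. Libraries were annealed with a biotinylated primer, the partner subunit and triplets, incubated frozen at −7 °C, and extended constructs were gel-excised, captured on streptavidin beads and recovered by RT-PCR. Input and output libraries were sequenced on Illumina, keeping genotypes with ≥10 input reads and ≥1 read per output. Fitness is log base 2 of genotype enrichment divided by wild-type enrichment, from inverse-variance-weighted replicate averages.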

Point of comparison: C49G G63U U96G, “polymerase ribozyme fitness (log ratio)” value -2.68. Against it:
- C49G G61A A95C — higher, -1.32
- C49U C98A — lower, -5.99
- A50C C89A — higher, -2.41
- C49G C62A — higher, -1.32
- C49U C104U — higher, -0.182
- A50C C53G C86U C88U G107U A121U — lower, -5.3
- C49G C70U C85G A105U — lower, -3.38
- C49A U132A — higher, -0.997
- C49G C80U C85G — higher, -2.11
- C49G G57U A119G U133G — higher, -0.101
- C49U C72G C97U U106A — higher, -0.73
- C49U U55G G63A — higher, -1.98
- C49U G110C — lower, -5.17
- C49G G60U C73U G128U — lower, -3.07
- C49G G52C — higher, -0.352
- C49A G71A C82A G120U — lower, -2.99
- C49G A121C — higher, 0.434
- C49G U55G C89A U92C — lower, -5.1
- C49A U55G C70U C86U A95C C101U C123A G135C — higher, -1.71
- C49G G71A C124G — higher, 0.642
- C49U G61U U78G — higher, -0.458
- C49G A68G G117U — lower, -5.87
- C49G A103U — lower, -5.7
- C49G G71A U112A — higher, -1.11
- C49G A83G — higher, 0.789
- C49G A66C C101G — lower, -4.2
- A50C A111C — higher, 0.0167
- A50C C76U C88U — higher, -1.73
- C49U G71A G117C — lower, -6.24
- C49A G71C C98U — lower, -2.91
- A50C A111C C115U U129A — lower, -6.02
- C49U C85G — higher, -2.2
- A50C A90U — higher, -2
- A50C A90C — higher, -2.1
- C49U C98U U125G — within 0.2 log units, -2.62
- C49G G52A C70A U96C — lower, -4.29
- C49U G60C G127A — higher, -2.38
- C49A G117C — lower, -3.75
- C49G C97G — lower, -4.99
- A50C A75G A95C C123U — higher, 0.24
- C49U C123U — higher, 1.01
- C49U G60U U106A G127U U130G G135U — higher, -1.71
- A50C C72U U81G C85A — higher, -1.34
- C49U G63A C80U G120A — lower, -5.11
- C49U C62U — higher, -1.19
- C49G G113U — within 0.2 log units, -2.52
- C49G G113A — higher, -1.08
- C49G C56A G71A G93C — lower, -6.41
- C49G C89A A111C A118C U129A U134G — lower, -5.22
- C49A G71U U92A C123U — within 0.2 log units, -2.65
- C49U A74C G122A — higher, -1.62
- C49U G58U C62G — higher, -1.16
- C49G A103U C124U — lower, -4.18
- C49G C123G — higher, 1.3
- C49G C123A — higher, -0.0129
- C49U A121U — higher, 1.09
- C49U U92A — lower, -3.99
- C49G C62U C88A A95C U130G — lower, -4.6
- A50C C53U A84G — higher, -0.439
- C49G U112G — higher, 0.00648
- C49G U112A — higher, 0.92
- A50G C62A U67A A84G C97U G110C A118G — lower, -8.94
- A50C C70A C82G A84C — higher, -2.37
- A50C C62U C115U — within 0.2 log units, -2.55
- C49A U78G U87G A121G G128U — higher, -0.14
- C49G C56G A91C — within 0.2 log units, -2.49
- C49G G69U C94U C114A G120A — higher, -1.33
- C49G C73G C89U G113A G122C — lower, -4.49
- A50C G63A U125G G127U — higher, -2.41
- C49G C62U A90U G113U — lower, -4.27
- A50C C123G — higher, 0.334
- C49U C97G — lower, -5.89
- A50C G69A G120A G127A — lower, -3.94
- A50C C73G — higher, -1.15
- C49G A90U — within 0.2 log units, -2.58
- C49A G77C — higher, -0.848
- A50C C115A — higher, -1.39
- C49U A91U C115A — within 0.2 log units, -2.58
- C49U G93A G110A — lower, -2.9
- A50C C88A — higher, -1.03
- A50C C56A A66G — within 0.2 log units, -2.8
- C49A G63U C97G U132A — lower, -6.24

Source: the RNAGym collection of RNA variant scans (doi:10.1073/pnas.2313332121)
